Reference: patent publication US20260008852A1 (CRYSTAL BIOSCIENCE, published 2026)
Substitutions are numbered along the chain they refer to.

T1: his-tagged B7-H3 (UniProt Q5ZPR3-2 29-245, limits assumed)
T1 construct: also called CD276; not shown: His tag
T1 sequence (looked up): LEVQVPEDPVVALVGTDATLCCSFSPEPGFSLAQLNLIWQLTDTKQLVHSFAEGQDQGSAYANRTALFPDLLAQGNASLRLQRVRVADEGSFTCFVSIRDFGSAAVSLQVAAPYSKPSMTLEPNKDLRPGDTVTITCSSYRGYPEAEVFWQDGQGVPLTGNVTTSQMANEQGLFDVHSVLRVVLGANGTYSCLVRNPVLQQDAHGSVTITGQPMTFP

B1: 40633p1.1.D11 scFv-Fc (scFv, V domains shown)
VH: EVQLLESGGGLVQPGGSLRLSCAASGFTFRSYAMSWVRQAPGKGLEWVAYIGSSGGTTYYADSVKGRFTISRDNSKNTLYLQMNSLRAEDTAVYYCVKESYYYMDVWGQGTTVTVSS
VL: QSVLTQPPSASGTPGQRVTISCSATISNIDINRVSWYQQLPGTAPKLLIFNSQRPSGVPDRFSGSKSGTSASLAISGLQSEDEADYYCATWDDSLNSWVFGGGTKLTVL
notes: Tested as scFv-Fc supernatant
B2: 40633p1.1.B12 scFv-Fc (scFv, V domains shown)
VH: EVQLLESGGGLLQPGGSLRLSCAASGFSFSSYGMHWVRQAPGKGLEWVAAINSDGSRIYYADSVKGRFTISRDNSKNTLYLQMNSLRAEDTAVYYCTKYYYHYAMDVWGQGTTVTVSS
VL: QSVLTQPPSASGTPGQRVTISCSGSRSDIGATTVNWYQQLPGTAPKLLTYQSHLRPSGVPDRFSGSKSGTSASLAISGLQSEDEADYYCASWDASLNTWVFGGGTKLTVL
B3: 40633p1.1.G10 scFv-Fc (scFv, V domains shown)
VH: B2 VH with L12V, Q13E, E46D, A50V, S53G, D54E, R57G, I58T, N77S, H102N
VL: B2 VL with S27T, A31T, T33S, T49I, L54Q, L96Q
B4: 40633p1.1.A6 scFv-Fc (scFv, V domains shown)
VH: EVQLLESGGGLVQPGGSLRLSCAASGFSFSNYDMSWVRQAPGKGLEWVAGIRSGSRTYYADSVKGRFTISRDNSKNTLYLQMNSLRAEDTATYYCGRYFNMDVWGQGTTVTVSS
VL: QSVLTQPPSASGTPGQRVTISCSGSTFNIGTNLVHWYQQLPGTAPKLLIYLTDRRPSGVPDRFSGSKSGTSASLAISGLQSEDEANYYCATWDDSLNSFLFGGGTKLTVL
B5: 40579p1.F7 scFv-Fc (scFv, V domains shown)
VH: EVQLLESGGGLVQPGGSLRLSCAASGFTFSDYYMSWVRQAPGKGLEWVSGISISYGGNAYYADSVKGRFTVSRDNSKNTLYLQMNSLRAEDTAVYYCGRDRSPYQYRSMDVWGQGTTVTVSS
VL: EIVLTQSPGTLSLSPGERATLTCRASQSVGDFLAWYQQKPGQAPRLLIYGASTRAAGIPARFRGSGSGTDFTLTISSLQSEDFAVYYCQQYKNWPPLTFGGGTKVEIK
notes: Tested as scFv-Fc supernatant
B6: 40579p1.H6 scFv-Fc (scFv, V domains shown)
VH: EVQLLESGGGLVQPGGSLRLSCAASGFTVNNAWMSWVRQAPGKGLEWVSAISYGGSIYYADSVKGRFTISRDNSKNTLYLQMNSLRAEDTAVYYCAKHRSTTYNGMDVWGQGTTVTVSS
VL: B5 VL with T22S, D31S, S52N, A60D, S67N, K92Y, N93D
B7: 40579p1.G1 scFv-Fc (scFv, V domains shown)
VH: B5 VH with T28N, D31S, Y33W
VL: B5 VL with T22S, V29I, G30R, D31S, F32D, T53S, A56T, R63S, D70E, K92N
notes: Tested as scFv-Fc supernatant
B8: 40579p1.H7 scFv-Fc (scFv, V domains shown)
VH: B5 VH with G10D, T28N, D31S, Y33W
VL: B5 VL with T22S, V29I, G30R, D31S, F32D, T53S, A56T, R63S, D70E, K92N
notes: Tested as scFv-Fc supernatant
B9: 40633p1.1.E6 scFv-Fc (scFv, V domains shown)
VH: EVQLLESGGGLVQPGGSLRLSCAASGLTFSSYAMNWVRQAPGKGLEWVAGIGGSGSSTYHTDSVKGRFTISRDNSKNTLYLQMSSLRAEDAAVYYCAKEDHWSGGMDVWGQGTTVTVSS
VL: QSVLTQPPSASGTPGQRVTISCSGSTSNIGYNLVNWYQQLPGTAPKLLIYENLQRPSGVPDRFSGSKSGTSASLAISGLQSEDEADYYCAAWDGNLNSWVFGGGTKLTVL
B10: 40633p1.1.G3 scFv-Fc (scFv, V domains shown)
VH: B9 VH with S84N
VL: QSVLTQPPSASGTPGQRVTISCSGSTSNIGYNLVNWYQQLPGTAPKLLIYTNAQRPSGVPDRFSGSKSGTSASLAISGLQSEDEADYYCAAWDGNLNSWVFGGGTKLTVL
B11: 40633p1.1.G7 scFv-Fc (scFv, V domains shown)
VH: EVQLLESGGGLVQPGGSLRLSCAASGFTFSGSAMNWVRQAPGKGLEWVSAINSGGTTIYYADSVKGRFTVSRDNSKNTLYLQMNSLRAEDTAVYYCVKLDFYYGMDVWGEGTTVTVSS
VL: QSVVTQPPSASGTPGQRVTVSCSGSSSNVGSKYVQWYQQLPGTAPKLLIYATDRRPSGVPDRFSGSKSGTSASLAISGLQSEDEADYYCASWDDSLNAWVFGGGTKLTVL
notes: Tested as scFv-Fc supernatant
B12: 40633p1.2.A10 scFv-Fc (scFv, V domains shown)
VH: EVQLLESGGGLVQPGGSLRLSCAASGFTVSYYGMSWVRQAPGKGLEWVSVIKQDGSEEYYADSVKGRFTISRDNSKNTLYLQMNSLRAEDTAVYYCARHWNDYSNGMNVWGQGTTVTVSS
VL: QSVLTQPPSASGTPGQRVTISCSGSTSNVGDRYVYWYQQLPGTAPKLLIYLDDQRPSGVPDRFSGSKSGTSASLAISGLQSEDEADYYCASWDASLNGWVFGGGTKLTVL
notes: Tested as scFv-Fc supernatant
B13: 40633p1.1.E3 scFv-Fc (scFv, V domains shown)
VH: B12 VH with V50A, E58K, G106A
VL: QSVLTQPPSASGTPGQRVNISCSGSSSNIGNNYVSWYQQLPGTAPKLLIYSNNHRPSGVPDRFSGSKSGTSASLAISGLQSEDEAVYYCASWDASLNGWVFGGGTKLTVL
notes: Tested as scFv-Fc supernatant
B14: 40633p1.1.G5 scFv-Fc (scFv, V domains shown)
VH: B12 VH with T28I, S30N, A40P, V50A, E58K, N77T
VL: QSVLTQPPSASGTPGQRVTISCSGSWSNIGSYNSHWYQKLPGTAPKLLIYTTDRRPSGVPDRFSGSKSGTSASLAISGLQSEDEADYYCGTWDDSLNVWVFGGGTKLTVL
notes: Tested as scFv-Fc supernatant
B15: 40633p1.2.E1 scFv-Fc (scFv, V domains shown)
VH: B12 VH with G9R
VL: B12 VL
notes: Tested as scFv-Fc supernatant
B16: 40633p1.2.F3 scFv-Fc (scFv, V domains shown)
VH: B12 VH
VL: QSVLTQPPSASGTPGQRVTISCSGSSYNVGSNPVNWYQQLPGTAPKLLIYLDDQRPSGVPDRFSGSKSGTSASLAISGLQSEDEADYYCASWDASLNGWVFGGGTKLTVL
notes: Tested as scFv-Fc supernatant
B17: 40633p1.2.C3 scFv-Fc (scFv, V domains shown)
VH: B12 VH with V50A, E58K, G106A, G111E
VL: B12 VL with T26N, D31G, R32N, Y35S, L51R, D52N, D53S, D86V
notes: Tested as scFv-Fc supernatant
B18: 40633p1.1.G11 scFv-Fc (scFv, V domains shown)
VH: B12 VH with L86P
VL: B12 VL
notes: Tested as scFv-Fc supernatant
B19: 40633p1.1.A7 scFv-Fc (scFv, V domains shown)
VH: B12 VH with V50A, E58K, G106A
VL: B12 VL with V29I, D31R, R32E, Y33S, L51T, D52I, D86V
notes: Tested as scFv-Fc supernatant
B20: 40633p1.1.A11 scFv-Fc (scFv, V domains shown)
VH: EVQLLESGGDLVQPGGSLRLSCAASGFTFNTYWMNWVRQAPGKGLEWVAGINSKGGVTYYADSVKGRFTISRDNSKNTLYLQMNSLRAEDTAVYYCADWNDYDIMDVWGQGTTVTVSS
VL: QSVLTQPPSASGTPGQTITISCSGSSSNVGRRTVNWYQQLPGTAPKLLIYTNAQRPSGVPDRFSGSKSGTSASLAISGLQSEDEADYYCATWDDSLNAWVFGGGTKLTVL
B21: 40633p1.1.B3 scFv-Fc (scFv, V domains shown)
VH: B12 VH with V50A, E58K, G106A
VL: B12 VL with V29I, D31R, R32E, Y33S, L51T, D52I, A90G, S91T, A94D, G98A
notes: Tested as scFv-Fc supernatant
B22: 40633p1.1.E4 scFv-Fc (scFv, V domains shown)
VH: B20 VH with D10G, N30S, T31S, N35S, A49S, N52S, K54S, G56S, V57A, D98R
VL: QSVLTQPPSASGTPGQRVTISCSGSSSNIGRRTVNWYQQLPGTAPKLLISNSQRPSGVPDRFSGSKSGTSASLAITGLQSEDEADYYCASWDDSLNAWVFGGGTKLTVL
notes: Tested as scFv-Fc supernatant
B23: 40633p1.1.C11 scFv-Fc (scFv, V domains shown)
VH: B20 VH with D10G, N30S, T31S, N35S, S53R, K54N, V57T, D98R
VL: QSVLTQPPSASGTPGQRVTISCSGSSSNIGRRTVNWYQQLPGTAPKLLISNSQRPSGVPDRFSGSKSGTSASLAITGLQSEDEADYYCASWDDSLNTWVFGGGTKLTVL
notes: Tested as scFv-Fc supernatant
B24: 40633p1.2.D7 scFv-Fc (scFv, V domains shown)
VH: B20 VH with D10S, N30S, T31S, N35S, A49S, N52S, K54S, G56S, V57A, D98R
VL: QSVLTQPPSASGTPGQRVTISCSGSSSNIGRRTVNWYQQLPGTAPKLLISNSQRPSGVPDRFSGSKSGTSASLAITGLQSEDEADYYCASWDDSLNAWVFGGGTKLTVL
notes: Tested as scFv-Fc supernatant
B25: 40633p1.1.F2 scFv-Fc (scFv, V domains shown)
VH: EVQLLESGGGLVQPGGSLRLSCVASGLTFNGFAMTWVRQAPGKGLEWVSGISWNSGSIYYADSVKGRFTISRDNSKNTVYLQMSSLRAEDTAIYYCAKNWNDYYNSMDVWGQGTTVTVSS
VL: QSVLTQPPSASGTPGQRVTISCSGSRSNIGTKYVYWYQQFPGTAPKLLIYTTDRRPSGVPDRFSGSKSGTSASLAISGLQSEDEADYYCSAWDDRLNAWVFGGGTKLTVL
notes: Tested as scFv-Fc supernatant

Target: T1, his-tagged B7-H3
Test: SPR, Carterra LSA; binder captured by anti-human Fc, his-tagged B7-H3 injected
Procedure: Binding affinities of anti-B7-H3 antibodies to B7-H3 were measured by Surface Plasmon Resonance (SPR) on a Carterra LSA instrument. Goat anti-human Fc antibody was amine coupled to a HC30M chip. ScFv-Fc supernatants were diluted 30-fold with HBSTE and were captured by the anti-human Fc coupled HC30M chip. A 1:2 dilution series of his-tagged B7-H3, starting at 400 nM, was injected onto the chip for binding. Data was analyzed using the Carterra TM Kinetics software.

Going from B1 to B2, the Kd rises from 13.2 nM to 20.2 nM (1.5-fold). The first binds more tightly here.

First: B3
Second: B4
The Kd of the first is 4-fold lower: 0.248 nM for the first, 1 nM for the second. The first binds more tightly here.

Going from B5 to B6, the Kd falls from 212 nM to 7.72 nM (27-fold).

B7 and B8 are within 1.5-fold of each other in Kd: 6.75 nM for the first, 5.57 nM for the second.

Compared with B9, B10 is 3.7-fold higher in Kd: 142 nM for the first, 524 nM for the second.

Compared with B11, B12 is 13-fold higher in Kd: 0.113 nM for the first, 1.44 nM for the second. The first binds more tightly here.

B13 and B14 cannot be ordered by Kd: > 400 nM for the first, 437 nM for the second.

First: B15
Second: B16
The Kd of the first is 3.5-fold lower: 8 nM for the first, 27.6 nM for the second. The first binds more tightly here.

Going from B17 to B18, the Kd falls from 20.7 nM to 1.48 nM (14-fold).

Compared with B19, B20 is 4.8-fold higher in Kd: 3.62 nM for the first, 17.4 nM for the second. The first binds more tightly here.

Compared with B21, B22 is 1.6-fold lower in Kd: 6.42 nM for the first, 3.95 nM for the second.

Going from B23 to B24, the Kd rises from 1.03 nM to 5.69 nM (5.5-fold). The first binds more tightly here.

B25 was tested, and the Kd was 298 nM.

In order of rising kon:
1. B13  2030 M⁻¹ s⁻¹
2. B9  6880 M⁻¹ s⁻¹
3. B17  33500 M⁻¹ s⁻¹
4. B10  73300 M⁻¹ s⁻¹
5. B5  108000 M⁻¹ s⁻¹
6. B25  108000 M⁻¹ s⁻¹
7. B15  124000 M⁻¹ s⁻¹
8. B14  141000 M⁻¹ s⁻¹
9. B4  166000 M⁻¹ s⁻¹
10. B6  252000 M⁻¹ s⁻¹
11. B7  260000 M⁻¹ s⁻¹
12. B1  277000 M⁻¹ s⁻¹
13. B8  281000 M⁻¹ s⁻¹
14. B16  307000 M⁻¹ s⁻¹
15. B2  349000 M⁻¹ s⁻¹
16. B3  349000 M⁻¹ s⁻¹
17. B21  360000 M⁻¹ s⁻¹
18. B19  371000 M⁻¹ s⁻¹
19. B24  402000 M⁻¹ s⁻¹
20. B11  411000 M⁻¹ s⁻¹
21. B12  422000 M⁻¹ s⁻¹
22. B18  434000 M⁻¹ s⁻¹
23. B23  481000 M⁻¹ s⁻¹
24. B22  523000 M⁻¹ s⁻¹
25. B20  714000 M⁻¹ s⁻¹

In order of rising koff:
1. B2  0.01 s⁻¹
2. B16  0.01 s⁻¹
3. B20  0.01 s⁻¹
4. B5  0.02 s⁻¹
5. B25  0.03 s⁻¹
6. B10  0.04 s⁻¹
7. B14  0.06 s⁻¹
8. B13  0.65 s⁻¹
